Assay results taken from the supplement of paper PMC9170038.

Experiments:
MS2 coat protein [1] = experiment: apparent KD of MS2 coat protein, switch OFF state (with FMN for OFF switches, without FMN for ON switches); designed switch direction (-1 OFF switch, 1 ON switch): 1; higher = weaker reporter binding; settings: FMN input: 0 or 200 uM; Eterna round: R93 (includes R88 designs)
Summary of the method: (§1)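 Titrations with SNAP-549-labelled MS2 coat protein ran in twofold steps from 0.7 or 1.5 nM to 3 µM, each step taking 0.8–1.5 h at the start and 10–20 min toward the end. The targets were designed RNA switches transcribed on-chip from Illumina sequencing clusters, held in 100 mM Tris-HCl pH 7.5, 80 mM KCl, 4 mM MgCl2, without or with constant ligand. Apparent KD was taken per design as the median of normalised cluster binding-curve fits.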

MS2 coat protein [2] = experiment: apparent KD of MS2 coat protein, switch ON state; designed switch direction (-1 OFF switch, 1 ON switch): 1; higher = weaker reporter binding; settings: FMN input: 0 or 200 uM; Eterna round: R93 (includes R88 designs)
Summary of the method: as §1

Sequence | apparent KD of MS2 coat protein (MS2 coat protein [1]) [nM] | apparent KD of MS2 coat protein (MS2 coat protein [2]) [nM]
AGAAAUAAAGCAGAGGAUAUCCAAAAGAAAACAUGAGGAUCACCCAUGUAAAAGAAAAUAAAAUGGGAGAAGGCUGCAAAUAAAG | 23.9 | 18.5
AAAAAAAAAACAUAGGAUAUCCGGGCCGGGACAUGAGGAUCACCCAUGUCAAAAAAAAUUGGCCCGGAGAAGGAUGAAAAAAAAAA [SAmeState2-II] | 14 | 11.5
GGGAGACAUGAGGAUCACCCAUGUGAGAAGAGGCGAGGAUAUCGAAAGAAAGAAGAGAAACGAGAAGGCGCGAGGU [salish99-SS1-055] | 72.3 | 39.8
AUUACAUCUAGUUAGGAUAUCAGAUGUAAGACAUGAGGAUCACCCAUGUCCUAAGAAUAGGUAACUGAGAAGGAACAGGGAGUAU [JR_SS002_Sub418] | 26.8 | 23.4
AGGAAACAUGAGGAUCACCCAUGUAAAGAUGGAGGAGGAUAUCGAAAGAAAAGAAAGAAACGAGAAGGCCUAAAAG [59%, Flamingo, 2] | 99.2 | 20.9
GGAGAACAUGAGGAUCACCCAUGUCGGAGAAGGCGAGGAUAUCGAAGGAGGAAGGAAGGACGAGAAGGCGCGGCAG [salish99-SS1-01] | 21.4 | 15.9
UAAAAACAUGAGGAUCACCCAUGUAGAAAUAUGGGAGGAUAUACAAAGACGAAAGUCAAAGUAGAAGGCCUGAAAU [Mat - Same State 1 - Eli mod - 85] | 88.7 | 21.5
AAUGAACAUGAGGAUCACCCAUGUUUUAAUAGUUGAGGAUAUAAGGGUGAAAAUAGCACAUUAGAAGGCGAGUGUA [SameState1 Malc#15] | 38 | 39.4
AAAAUACAUGAGGAUCACCCAUGUGAAAAUAUGGGAGGAUAUACCGAAAAAAAAAAAACGGUAGAAGGCCCAAAAA [SS! 1 MT 7] | 43.5 | 18.7
AGGAAACAUGAGGAUCACCCAUGUAAAAAAGUGGGAGGAUAUGCGAAAAGAAAAAGAAAAGCAGAAGGCCUAAGAA [62%, Something completely different, 6] | 42.7 | 21.9
AGAAAAAAAACGCAGGAUAUCCAAAAGAAAACAUGAGGAUCACCCAUGUAAAAGAAAAUAAAAUGGGAGAAGGGCGAAAAAAAGA [Mat - Same State 2 - Eli mod - D93] | 18.5 | 9.91
AAAUAACAUGAGGAUCACCCAUGUUACGACUUUACAGGAUAUGUGGGUGAAAAUAGCAUGACAGAAGGGUACAGUA [SameState1 Malc#36] | 112 | 205
UAAAAACAUGAGGAUCACCCAUGUAAGAUAAACACAGGAUAUGCGAAAAGAAACAAAGAAGCAGAAGGGUGAAAAU [Mat - Same State 1 - Tesla mod - 44] | 64.8 | 17.3
AAUGAACAUGAGGAUCACCCAUGUUUUAAUAGUUGAGGAUAUAUGGGUGAAAAUAGCACAGUAGAAGGCGAGUGUA [SameState1 Malc#16] | 133 | 144
AAGAAACAUGAGGAUCACCCAUGUGAUAAUAUGGGAGGAUAUACGAAGACGAAAGUCGAAGUAGAAGGCCUAUGAA [Garnet 42] | 57.2 | 40.2
AAAUAACAUGAGGAUCACCCAUGUUGCAACGAUACAGGAUAUGUGGGUGAAAAUAGCAUGACAGAAGGGUAAUGUA [SameState1 Malc#31] | 35 | 401
AGGAAACAUGAGGAUCACCCAUGUAAAAAAAUGGGAGGAUAUCCGCAUUAAUUAAAUGAAGGAGAAGGCCUAAAAA [71%, Same state of confusion2, 5] | 63.1 | 21.6

Sequence | apparent KD of MS2 coat protein (MS2 coat protein [1]) [nM] | apparent KD of MS2 coat protein (MS2 coat protein [2]) [nM]
GAGGACCUAGGAUAGGAUAUAUGAAUAAUUACAUGAGGAUCACCCAUGUCCAUUUAUAUGGGAACAUAGAAGGGUUCUGGUUAUC [SameState2 Malc#37] | 60.6 | 36.9
CAUCAUGCGCCUAAGGAUAUGUCUCACAAGACAUGAGGAUCACCCAUGUAGAAUAAAUAAAUGAUGCAGAAGGUGGAGUGCAUGA [Inares] | 785 | 50.6
UGGAGACAUGAGGAUCACCCAUGUGAGAAGAGGCGAGGAUAUCGAAAGAAAGAAGAGAAACGAGAAGGCGCGAGGG [salish99-SS1-043] | 52.1 | 49.7
AAGAAUGUUUACGAGGAUAUGUUCCGCAGAACAUGAGGAUCACCCAUGUGAACAAGAAAGGCGACGCAGAAGGCGUGAGCAAAGA [Laatreve] | 324 | 45.7
CAUCAUGCGUCUAAGGAUAUGUCUCACAAGACAUGAGGAUCACCCAUGUAGAAUAAAUAAAUGAUGCAGAAGGUGGAGCGCAUGC [Erzausis] | 283 | 53.2
UUGCAGUACGGGUAGGAUAUGUAGGGUGGUACAUGAGGAUCACCCAUGUGUCCACCCUUCGACCGGCAGAAGGGCCUGUCACUGC [Lerieseser] | 17.3 | 17.5
GUGGCCCAGGCACAGGAUAUGUUUCUCGUAACAUGAGGAUCACCCAUGUGCCUAUGAGAUUUAAUGCAGAAGGGUGCACGCCACG [Atiinbe] | 342 | 16.4
AAAAAACAUGAGGAUCACCCAUGUGAGAACACGGGAGGAUAUACGAAGACGAAAGUCGAAGUAGAAGGCCUAAAAA [Garnet 82] | 75.6 | 21.2
GGCAAACAUGAGGAUCACCCAUGUCAGUGCUAUCAAGGAUAUGGGAUGACGGAAGGUCGGCCAGAAGGUGAGAAAG [Quededma] | 406 | 233
AAGACACAUGAGGAUCACCCAUGUCAAGAGAGACGAGGAUAUCUGAAAAAAAAAAAAAAAGGAGAAGGCGUGAAAA [Same State of Confusion] | 69.3 | 33.5
UAACAACAUGAGGAUCACCCAUGUCAAACAGAUCGAGGAUAUGGGCAGGGUUUUCCCUAACUAGAAGGCGAAGACA [Leinxeerri] | 181 | 71.1
GUGUAUAGCCUCGAGGAUAUCCUGUAAUGCACAUGAGGAUCACCCAUGUAUGAGCGAGUUUUUUGGGAGAAGGCGAGUUAUCGGU [JR_SS002_Sub1709] | 24.2 | 12.9
AAAAAACAUGAGGAUCACCCAUGUAGAAAUAUGGAAGGAUAUGGAAACACGAAAGUGAAACCAGAAGGUCCAAAAG [77%, Mat - Mod of Eli, 9] | 23.9 | 18
AGGAAACAUGAGGAUCACCCAUGUAAAAAUAUGGGAGGAUAUACGAAGACGAAAGUAAGAGUAGAAGGCCUAAAAG [Garnet 9] | 90.6 | 23.9
AGGAAACAUGAGGAUCACCCAUGUAAGAUAAACACAGGAUAUGCGAAAAGAAACAAAGAAGCAGAAGGGUGAAGAA [75%, Ex5 sub 1, 1] | 35.6 | 20.6
UUUAGCUGCGGGCAGGAUAUGUAUUAAAAUACAUGAGGAUCACCCAUGUGCAGGUGUAACACCUGACAGAAGGGCCAAUCGCGGC [Bequre] | 193 | 25
